One series addresses T1, RHAU (full length) (UniProt Q9H2U1 1-1008).
T1 sequence: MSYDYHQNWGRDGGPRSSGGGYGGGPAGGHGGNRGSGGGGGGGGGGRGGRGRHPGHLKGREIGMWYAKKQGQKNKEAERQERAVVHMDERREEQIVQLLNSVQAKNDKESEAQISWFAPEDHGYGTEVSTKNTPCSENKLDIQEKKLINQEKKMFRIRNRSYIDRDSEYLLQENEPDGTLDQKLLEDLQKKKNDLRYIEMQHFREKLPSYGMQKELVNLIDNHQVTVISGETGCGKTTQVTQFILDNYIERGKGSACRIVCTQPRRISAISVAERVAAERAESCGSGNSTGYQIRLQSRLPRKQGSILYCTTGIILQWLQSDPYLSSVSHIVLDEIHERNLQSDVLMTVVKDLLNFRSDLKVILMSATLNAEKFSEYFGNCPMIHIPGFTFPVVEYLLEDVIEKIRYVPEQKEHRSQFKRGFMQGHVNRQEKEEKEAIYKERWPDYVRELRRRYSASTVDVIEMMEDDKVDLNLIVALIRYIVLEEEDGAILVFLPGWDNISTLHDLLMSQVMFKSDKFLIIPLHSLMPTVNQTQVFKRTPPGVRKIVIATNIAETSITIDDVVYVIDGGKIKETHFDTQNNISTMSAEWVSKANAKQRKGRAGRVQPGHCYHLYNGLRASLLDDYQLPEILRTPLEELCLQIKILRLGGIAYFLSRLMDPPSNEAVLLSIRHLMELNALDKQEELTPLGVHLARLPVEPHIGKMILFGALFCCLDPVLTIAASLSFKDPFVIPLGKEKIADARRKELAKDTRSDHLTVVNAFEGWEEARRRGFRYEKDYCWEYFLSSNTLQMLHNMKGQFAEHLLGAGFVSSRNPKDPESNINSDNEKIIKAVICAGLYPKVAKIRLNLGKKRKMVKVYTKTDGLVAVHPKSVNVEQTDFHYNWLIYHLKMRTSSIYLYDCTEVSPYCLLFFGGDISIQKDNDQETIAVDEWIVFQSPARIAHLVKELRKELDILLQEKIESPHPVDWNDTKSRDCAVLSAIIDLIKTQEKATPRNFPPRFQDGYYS
Nature of the series: EMSA; 150 nM RNA, 0-750 nM protein; RNA in 50 mM Tris pH 7.6, 100 mM KCl; EMSA as in ref 12/36 (150 nM RNA, 0-750 nM protein); pull-down binding buffer 50 mM Tris-acetate pH 7.8, 100 mM KCl, 10 mM NaCl, 3 mM MgCl2, 70 mM glycine, 10% glycerol, room temperature. The following applies: protein: recombinant, label: 5' biotin.

In series [1] the target is T2, RHAU53-105 (UniProt Q9H2U1 53-105).
T2 sequence: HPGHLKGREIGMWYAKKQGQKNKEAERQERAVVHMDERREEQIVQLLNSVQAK
Nature of the series: EMSA; 150 nM RNA, 0-750 nM protein; qualitatively lower affinity than full length; RNA in 50 mM Tris pH 7.6, 100 mM KCl; EMSA as in ref 12/36 (150 nM RNA, 0-750 nM protein); pull-down binding buffer 50 mM Tris-acetate pH 7.8, 100 mM KCl, 10 mM NaCl, 3 mM MgCl2, 70 mM glycine, 10% glycerol, room temperature. The conditions noted are these: protein: recombinant; label: 5' biotin; G-quadruplex. On the technique in general: Mobility shift assays separate free from complexed probe on a gel.

Series [2] has as its target T3, 6xHis-RHAU53-105 (UniProt Q9H2U1 53-105).
T3 sequence: T2 sequence
Nature of the series: EMSA; RNA in 50 mM Tris pH 7.6, 100 mM KCl; EMSA as in ref 12/36 (150 nM RNA, 0-750 nM protein); pull-down binding buffer 50 mM Tris-acetate pH 7.8, 100 mM KCl, 10 mM NaCl, 3 mM MgCl2, 70 mM glycine, 10% glycerol, room temperature. The conditions noted are these: protein: recombinant; tags: 6xHis; label: 5' biotin; no quadruplex (no NMM staining).

Series [3] deals with T2, RHAU53-105. In words: EMSA; 150 nM RNA, 0-750 nM protein; RNA in 50 mM Tris pH 7.6, 100 mM KCl; EMSA as in ref 12/36 (150 nM RNA, 0-750 nM protein); pull-down binding buffer 50 mM Tris-acetate pH 7.8, 100 mM KCl, 10 mM NaCl, 3 mM MgCl2, 70 mM glycine, 10% glycerol, room temperature. The following applies: protein: recombinant; label: 5' biotin; no quadruplex (no NMM staining).

The target in series [4] is T3, 6xHis-RHAU53-105. Nature of the series: EMSA; 150 nM RNA; affinity similar to untagged; RNA in 50 mM Tris pH 7.6, 100 mM KCl; EMSA as in ref 12/36 (150 nM RNA, 0-750 nM protein); pull-down binding buffer 50 mM Tris-acetate pH 7.8, 100 mM KCl, 10 mM NaCl, 3 mM MgCl2, 70 mM glycine, 10% glycerol, room temperature. The conditions noted are these: protein: recombinant; tags: 6xHis; label: 5' biotin; G-quadruplex.

GUUGGGGCGGGCGUUGGGUUUGGGGGGACG (structured_RNA) [PITX1 Q2]: the binding result with RHAU (full length) (G-quadruplex) and with RHAU53-105 [1] was “binds” throughout.

With GAGCGCGGAAGCGCGCGCGCGCGCGCGCGG (ssRNA) [PITX1 Q1Mut], the binding result in the series with 6xHis-RHAU53-105 [2], with RHAU53-105 [3] and in the series with RHAU (full length) (no quadruplex (no NMM staining)) was “no binding” each time.

In the case of AGCGGGCAGUGCGGGCCUGGCGGGAGGUGGGGGAGG (structured_RNA) [PITX1 Q3], the binding result in the series with RHAU (full length) (G-quadruplex) and in the series with RHAU53-105 [1] was “binds” in each case.

On to GAGCGGGGAAGGGCGCGGGCGCGGGCGCGG (structured_RNA) [PITX1 Q1], for which the binding result with RHAU (full length) (G-quadruplex), in the series with 6xHis-RHAU53-105 [4] and with RHAU53-105 [1] was “binds” throughout.
